The target in test [1] is T1, recombinant human IL6R-his (human, UniProt P08887 20-365).
T1 construct: In house made; the entry includes the C-terminal His tag; also called human IL6R-his protein
T1 sequence: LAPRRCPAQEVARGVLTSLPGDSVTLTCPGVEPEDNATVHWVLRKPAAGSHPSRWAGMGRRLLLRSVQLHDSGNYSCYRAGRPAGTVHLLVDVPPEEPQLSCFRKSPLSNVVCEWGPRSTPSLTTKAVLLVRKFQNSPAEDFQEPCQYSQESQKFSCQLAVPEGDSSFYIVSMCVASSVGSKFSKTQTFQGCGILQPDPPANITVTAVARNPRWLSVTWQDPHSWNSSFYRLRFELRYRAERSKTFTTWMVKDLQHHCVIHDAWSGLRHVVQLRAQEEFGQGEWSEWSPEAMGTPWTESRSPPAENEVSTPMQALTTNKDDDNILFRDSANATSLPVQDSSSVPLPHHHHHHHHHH
As to the kind of experiment: SPR Biacore T200; mAb captured by anti-mouse IgG on CM5, antigen in flow, 1:1 fit. On the procedure: (§1) Un-reacted moieties on the biosensor surface were blocked with ethanolamine. […] Then, serially diluted recombinant human IL6R-his (in house made, amino acid sequence set forth in SEQ ID NO: 44) or macaca IL6R-his protein (in house made, amino acid sequence set forth in SEQ ID NO: 45), starting at 100 nM with a 2-fold serial dilution in HBS-EP⁺ buffer (provided by Biacore), was flowed onto the chip at a flow rate of 30 μL/min. The antigen-antibody association kinetics was followed for 2 minutes and the dissociation kinetics was followed for 10 minutes. The association and dissociation curves were fit to a 1:1 Langmuir binding model using BIAcore evaluation software.

Test [2] has as its target T2, macaca IL6R-his protein (macaca mulatta).
T2 chain: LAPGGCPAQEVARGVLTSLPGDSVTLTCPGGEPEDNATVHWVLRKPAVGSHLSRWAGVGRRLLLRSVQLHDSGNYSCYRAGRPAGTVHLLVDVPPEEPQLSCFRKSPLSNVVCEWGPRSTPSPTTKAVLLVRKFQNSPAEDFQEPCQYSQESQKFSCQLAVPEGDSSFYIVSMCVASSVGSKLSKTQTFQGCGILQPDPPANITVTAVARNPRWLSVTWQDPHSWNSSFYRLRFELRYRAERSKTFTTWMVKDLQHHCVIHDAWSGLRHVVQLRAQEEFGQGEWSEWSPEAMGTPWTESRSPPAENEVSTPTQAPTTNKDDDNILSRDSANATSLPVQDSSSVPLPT
Described as above. The procedure:
as §1

In test [3] the target is T3, human IL6R-Fc protein (human, biotin-labeled in the ELISAs (sites not given)).
T3 construct: In house made; also called biotin-labeled human IL6R-Fc protein
Kind of test: capture ELISA: antibody captured on anti-IgG F(ab')2 coated plate, then biotin-labeled human IL6R-Fc, streptavidin-HRP. On the procedure: For the capture ELISA, 96-well micro plates were coated with 2 μg/ml AffiniPure Goat Anti-Mouse IgG, F(ab′)₂ fragment specific (Jackson ImmunoResearch Laboratories, Inc., Cat #115-005-072) in PBS, 100 μl/well, and incubated for 2 hours at 37° C. Plates were washed once with wash buffer (PBS+0.05% v/v Tween-20, PBST) and then blocked with 200 μl/well blocking buffer (5% w/v non-fatty milk in PBST) overnight at 4° C. […] Plates containing captured anti-IL6R antibodies were incubated with biotin-labeled human IL6R-Fc protein (prepared in house, SEQ ID NO: 43, 39.5 ng/ml in 2.5% w/v non-fatty milk in PBST, 100 μl/well) for 40 minutes at 37° C., washed 4 times, and incubated with streptavidin conjugated HRP (1:10000 dilution in PBST, Jackson ImmunoResearch Laboratories, Inc., Cat #016-030-084, 100 μl/well) for 40 minutes at 37° C. After a final wash, plates were incubated with 100 μl/well ELISA substrate TMB (InnoReagents, Cat #TMB-S-002). The reaction was stopped 3-10 minutes later at room temperature with 50 μl/well 1M H₂SO₄, and the absorbance of each well was read on a microplate reader using dual wavelength mode at 450 nm for TMB and 630 nm as the reference wavelength. Then the OD (450-630) values were plotted against antibody concentration. Data was analyzed using Graphpad Prism software and EC₅₀ values were reported.
Target sequence in this assay (chain, as listed by the source limits assumed): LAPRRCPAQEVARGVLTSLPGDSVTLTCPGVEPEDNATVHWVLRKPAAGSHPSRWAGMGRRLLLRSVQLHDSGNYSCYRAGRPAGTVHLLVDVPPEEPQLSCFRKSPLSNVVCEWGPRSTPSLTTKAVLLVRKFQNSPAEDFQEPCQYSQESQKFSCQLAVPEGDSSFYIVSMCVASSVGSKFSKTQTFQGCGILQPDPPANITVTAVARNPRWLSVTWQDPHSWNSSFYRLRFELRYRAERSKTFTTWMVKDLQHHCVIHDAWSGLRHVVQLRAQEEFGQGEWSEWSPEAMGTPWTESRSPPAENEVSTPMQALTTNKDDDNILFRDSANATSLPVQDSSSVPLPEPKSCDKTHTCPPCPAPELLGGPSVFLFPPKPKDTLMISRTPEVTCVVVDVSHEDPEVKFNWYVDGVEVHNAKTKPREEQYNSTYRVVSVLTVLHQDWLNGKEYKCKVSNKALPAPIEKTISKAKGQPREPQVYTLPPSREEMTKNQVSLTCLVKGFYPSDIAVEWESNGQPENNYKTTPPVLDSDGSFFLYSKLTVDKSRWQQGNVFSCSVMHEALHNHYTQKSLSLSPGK

Test [4] has as its target T3, human IL6R-Fc protein. Kind of test: benchmark blocking ELISA: antibody pre-incubated with biotin-labeled human IL6R-Fc, added to plate-coated Tocilizumab (competitor: Tocilizumab). On the procedure:
ELISA plates were washed once with wash buffer (PBS+0.05% v/v Tween-20, PBST) and then blocked with 200 μl/well blocking buffer (5% w/v non-fatty milk in PBST) overnight at 4° C.
The next day, the anti-IL6R antibodies of the disclosure or controls were diluted with biotin labeled human IL6R-Fc protein (SEQ ID NO: 43, 13.6 ng/ml in 2.5% w/v non-fatty milk in PBST), starting at 100 nM with a 5-fold serial dilution, and incubated at room temperature for 40 minutes. […] After incubation at 37° C. for 40 minutes, plates were washed 4 times using wash buffer. Then streptavidin conjugated HRP was added, and the plates were incubated for 40 minutes at 37° C. The plates were finally washed using wash buffer, and added with TMB. The reaction was stopped using 1M […], and the absorbance was read on a microplate reader using dual wavelength mode with 450 nm for TMB and 630 nm as the reference wavelength. The OD (450-630) values were plotted against antibody concentration. Data was analyzed using Graphpad Prism software and IC₅₀ values were reported.

Test [5] addresses T3, human IL6R-Fc protein. As to the kind of experiment: ligand blocking ELISA: antibody pre-incubated with biotin-labeled human IL6R-Fc, added to plate-coated human IL6 (blocked ligand: human IL6). The procedure:
The next day, anti-IL6R antibodies or controls were diluted with biotin labeled human IL6R-Fc protein (prepared in house, SEQ ID NO: 43, 39.5 ng/ml in 2.5% w/v non-fatty milk in PBST), starting at 100 nM with a 4-fold serial dilution, and incubated at room temperature for 40 minutes. […] Plates were washed for 4 times using wash buffer, and added and incubated with 100 μl/well of streptavidin conjugated HRP (1:10000 dilution in PBST buffer, Jackson ImmunoResearch Laboratories, Inc., Cat #016-030-084) for 40 minutes at 37° C. Plates were washed again using wash buffer. Finally, TMB was added and the reaction was stopped using 1M H₂SO₄. The absorbance was read on a microplate reader using dual wavelength mode with 450 nm for TMB and 630 nm as the reference wavelength, and then the OD (450-630) values were plotted against antibody concentration. Data was analyzed using Graphpad Prism software and IC₅₀ values were reported.

The values below come from patent publication US20230167182A1 (BIOSION, published 2023).

B1: mouse anti-IL6R monoclonal antibody 1H9 (antibody, V domains shown)
VH: QVQLQQPGAELVKPGASVKLSCKASGYTFTSYWMHWVKLRPGQGLEWIGEINPTNGRTNYYEKFKNRATLTADKSSSTAYMQLSSLTFEDSAVYFCAKFHYSRWYFDVWGTGTTVTVSS
VL: DIVMTQSQKFMSTSVGDRVSITCKASQNVGTAVVWYQQKPGQSPKLLINPASNRYTGVPDRFTGSGSGTDFTLTISNMQSEDLADYFCQQYSSYPLTFGAGTKLELK
notes: Mouse hybridoma mAb
As to B1, the figures for the Kd in test [1] and in test [2] were 1.08 nM and 1.65 nM, respectively. Besides, the values for the koff in test [1] and in test [2] were 0.00012 s⁻¹ and 0.000155 s⁻¹, respectively. The results for the kon in test [1] and in test [2] were 112000 M⁻¹ s⁻¹ and 94100 M⁻¹ s⁻¹, respectively. A half-maximal effect in test [3] (EC50) was put at 0.0679 nM. Also, the figures for the IC50 in test [4] and in test [5] were 0.323 nM and 1.05 nM, respectively.
